Measured values published in patent US20180079802A1.

Experiments:
[1] = molecular target: Recombinant CHIKV E2 ectodomain protein (corresponding to the CHIKV-LR2006 strain) (Chikungunya virus strain LR2006); assay: BLI competition, E2 ectodomain on anti-Penta-His tip; first mAb 1H12
[2] = molecular target: Recombinant CHIKV E2 ectodomain protein (corresponding to the CHIKV-LR2006 strain) (Chikungunya virus strain LR2006); assay: BLI competition, E2 ectodomain on anti-Penta-His tip; first mAb 1O6
[3] = molecular target: Recombinant CHIKV E2 ectodomain protein (corresponding to the CHIKV-LR2006 strain) (Chikungunya virus strain LR2006); assay: BLI competition, E2 ectodomain on anti-Penta-His tip; first mAb 3A2
[4] = molecular target: Recombinant CHIKV E2 ectodomain protein (corresponding to the CHIKV-LR2006 strain) (Chikungunya virus strain LR2006); assay: BLI competition, E2 ectodomain on anti-Penta-His tip; first mAb 4B8
[5] = molecular target: Recombinant CHIKV E2 ectodomain protein (corresponding to the CHIKV-LR2006 strain) (Chikungunya virus strain LR2006); assay: BLI competition, E2 ectodomain on anti-Penta-His tip; first mAb 5F10 (r1)
[6] = molecular target: Recombinant CHIKV E2 ectodomain protein (corresponding to the CHIKV-LR2006 strain) (Chikungunya virus strain LR2006); assay: BLI competition, E2 ectodomain on anti-Penta-His tip; first mAb 5M16
[7] = molecular target: Recombinant CHIKV E2 ectodomain protein (corresponding to the CHIKV-LR2006 strain) (Chikungunya virus strain LR2006); assay: BLI competition, E2 ectodomain on anti-Penta-His tip; first mAb 9D14
[8] = molecular target: Recombinant CHIKV E2 ectodomain protein (corresponding to the CHIKV-LR2006 strain) (Chikungunya virus strain LR2006); assay: BLI competition, E2 ectodomain on anti-Penta-His tip; first mAb 5N23
[9] = molecular target: Recombinant CHIKV E2 ectodomain protein (corresponding to the CHIKV-LR2006 strain) (Chikungunya virus strain LR2006); assay: BLI competition, E2 ectodomain on anti-Penta-His tip; first mAb 5O14
[10] = molecular target: Recombinant CHIKV E2 ectodomain protein (corresponding to the CHIKV-LR2006 strain) (Chikungunya virus strain LR2006); assay: BLI competition, E2 ectodomain on anti-Penta-His tip; first mAb CHK-84 (f1)
[11] = molecular target: Recombinant CHIKV E2 ectodomain protein (corresponding to the CHIKV-LR2006 strain) (Chikungunya virus strain LR2006); assay: BLI competition, E2 ectodomain on anti-Penta-His tip; first mAb CHK-88 (f4)
[12] = molecular target: Recombinant CHIKV E2 ectodomain protein (corresponding to the CHIKV-LR2006 strain) (Chikungunya virus strain LR2006); assay: BLI competition, E2 ectodomain on anti-Penta-His tip; first mAb CHK-141 (f2)
[13] = molecular target: Recombinant CHIKV E2 ectodomain protein (corresponding to the CHIKV-LR2006 strain) (Chikungunya virus strain LR2006); assay: BLI competition, E2 ectodomain on anti-Penta-His tip; first mAb CHK-265 (f3)
[14] = molecular target: Recombinant CHIKV E2 ectodomain protein (corresponding to the CHIKV-LR2006 strain) (Chikungunya virus strain LR2006); assay: ELISA, E2 ectodomain coated

| Substance | percent binding of competing mAb in presence of first mAb [1] | percent binding of competing mAb in presence of first mAb [2] | percent binding of competing mAb in presence of first mAb [3] | percent binding of competing mAb in presence of first mAb [4] | percent binding of competing mAb in presence of first mAb [5] | percent binding of competing mAb in presence of first mAb [6] | percent binding of competing mAb in presence of first mAb [7] | percent binding of competing mAb in presence of first mAb [8] | percent binding of competing mAb in presence of first mAb [9] | percent binding of competing mAb in presence of first mAb [10] | percent binding of competing mAb in presence of first mAb [11] | percent binding of competing mAb in presence of first mAb [12] | percent binding of competing mAb in presence of first mAb [13] | OD [14] |
| --- | --- | --- | --- | --- | --- | --- | --- | --- | --- | --- | --- | --- | --- | --- |
| CHK-265 (antibody) | 52% | 85% | 95% | 92% | -3% | 84% | 105% | 98% | 85% | 92% | 3% | 86% | 2% |  |
| murine CHK-152 (antibody) |  |  |  |  |  |  |  |  |  |  |  |  |  | < 0.1 od |
